Target: BCRs exhibiting the target structure on primary B-cells from the blood of leukemia patients
Test: cell-based or functional assay

B1: AVA-mAb01 (antibody, V domains shown)
VH: QVQLQQSGPGLVQPSQSLSITCTVSGFSLTSYGIHWVRQSPGKGLEWLGVIWRGGGTDSNAAFMSRLSITKDNSKSQVFFKMNSLQADDTAIYYCARSRYDEEESMNYWGQGTSVTVSS
VL: QIVLTQSPASLSASVGETVTITCRASGNIHSYLAWYQQKQGKSPQLLVYNAKTLADGVPSRFSGSGSGTQYSLKINSLQPEDFGSYYCQHFWNTPPTFGAGTKLELK
Which lymphocyte count in the flow-through after double purification over LS columns with antibody-conjugated MACS MicroBeads (start: 80,000 lymphocytes/µl) (lymphocytes/µl) does the source give for B1 here?
The lymphocyte count in the flow-through after double purification over LS columns with antibody-conjugated MACS MicroBeads (start: 80,000 lymphocytes/µl) (lymphocytes/µl) was under 5000.

From patent US20200199225A1
